This note sets out measurements from US5656452A, “NF-ATp, ' a T lymphocyte DNA-binding protein” (President and Fellows of Harvard College, priority 1993, dated 1997).

In data set [1] the target is T1, NF-ATp XS (464-aa recombinant fragment of murine NF-ATp) (Mus musculus, UniProt Q60591 SEQ:226-689).
T1 chain: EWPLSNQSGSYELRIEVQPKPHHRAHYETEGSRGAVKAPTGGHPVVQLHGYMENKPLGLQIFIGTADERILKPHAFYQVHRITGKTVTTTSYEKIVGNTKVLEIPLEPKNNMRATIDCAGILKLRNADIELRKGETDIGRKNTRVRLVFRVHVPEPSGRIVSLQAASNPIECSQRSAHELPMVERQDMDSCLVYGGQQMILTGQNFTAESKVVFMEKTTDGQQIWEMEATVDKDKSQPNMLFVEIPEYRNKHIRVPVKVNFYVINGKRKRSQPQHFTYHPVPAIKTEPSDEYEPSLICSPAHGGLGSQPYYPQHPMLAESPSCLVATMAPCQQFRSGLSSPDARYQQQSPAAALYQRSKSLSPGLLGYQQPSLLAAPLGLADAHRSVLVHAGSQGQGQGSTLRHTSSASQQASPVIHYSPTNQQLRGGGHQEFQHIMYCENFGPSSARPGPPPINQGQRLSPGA
The data set can be described thus: competition; 200-fold excess does not compete. As for the experimental part: (§1) EMSAs were performed using 18 μl of renatured proteins in a 30 μl mix containing 4 mM Hepes, pH 7.4, 84 mM NaCl, 20 mM KCl, 0.08 mM EDTA, 9% glycerol, 0.7 mg/ml BSA, 17 μg/ml poly(dI:dC) and 0.125 ng of ^32P-labelled oligonucleotide. For competition assays, a 200-fold excess of unlabeled oligonucleotide was added to the reaction. The reactions were incubated for 15 minutes at room temperature followed by electrophoresis at 4° C. on 4% Tris/borate/EDTA/acrylamide gels. The NF-AT oligonucleotide used had the sequence GCCCAAAGAG-GAAAATTTGTTTCATACAG (SEQ ID NO:1), corresponding to the distal NF-AT site from the murine IL-2 promoter (nucleotides −295 to −267 relative to the transcription start site, (Serfling, E., Barthelmas, R., Pfeuffer, I., Schenk, B., Zarius, S., Swoboda, R., Mercurio, F., and Karin, M. (1989) *EMBO J.* 8, 465–473)). Oligonucleotides bearing mutations in the NF-AT site were as follows: M1, […] (SEQ ID NO:2); M2, […] […]
(§2) Figure 12: FIG. 12 is a photograph of an EMSA gel. Binding of a recombinant fragment of NF-AT_p (NF-AT_pXS) to target DNA and association of the recombinant NF-AT_p fragment with Fos and Jun proteins was evaluated. The binding of the recombinant fragment of murine NF-AT_p to the distal NF-AT site of the murine IL-2 promoter was assessed by EMSA in the presence or absence of a 200-fold excess of unlabelled competitor oligonucleotides as shown in Lane 1–5. […]

The target of data set [2] is T1, NF-ATp XS (464-aa recombinant fragment …). The data set can be described thus: competition; 200-fold excess competes as strongly as wild type. The method, then: as §1, §2
A further data set deals with NF-ATp XS + c-Jun (UniProt Q60591;P17325 Q60591:400-863,P17325:1-334). In words: EMSA; slower-migrating Jun-Jun-NF-ATp complex. The following applies: tags: His6 on NF-ATp XS; full-length c-Jun; label: 32P. As for the experimental part:
(§3) Figure 12: FIG. 12 is a photograph of an EMSA gel. Binding of a recombinant fragment of NF-AT_p (NF-AT_pXS) to target DNA and association of the recombinant NF-AT_p fragment with Fos and Jun proteins was evaluated. The binding of the recombinant fragment of murine NF-AT_p to the distal NF-AT site of the murine IL-2 promoter was assessed by EMSA in the presence or absence of a 200-fold excess of unlabelled competitor oligonucleotides as shown in Lane 1–5. The arrows indicate two DNA-protein complexes formed with NF-AT_pXS. Full-length recombinant c-Fos and c-Jun proteins were included in the same binding reactions, as shown in Lanes 7–9. The open arrows indicate Jun—Jun-NF-AT_pXS complexes, while the closed arrows indicate Fos-Jun-NF-AT_pXS complexes.
(In general: A gel shift assay detects complexes by their altered migration in electrophoresis.)

Data set [3] concerns the target NF-ATp (T cell) + c-Fos + c-Jun (UniProt Q60591;P12841;P17325 Q60591:1-927,P12841:1-380,P17325:1-334). In words: EMSA; upper complex with partially purified NF-ATp; not seen with c-Fos only. The following applies: tags: native NF-ATp with recombinant c-Fos and c-Jun; label: 32P. As for the experimental part: Figure 7: FIG. 7 is a photograph of an EMSA gel showing the results of an EMSA. […] Partially purified NF-AT_p was incubated with labeled oligonucleotide corresponding to the distal NF-AT site of the murine IL-2 promoter, either alone (lanes 1, 7, 13), with full length or truncated (T) recombinantly produced c-Fos and c-Jun proteins (lanes 2–5 and 8–11, respectively) or with an equivalent concentration of bovine serum albumin. Lane 5 contained 50% more c-Fos and c-Jun compared to lane 4. Lanes 11–13 contain half the amount of NF-AT_p compared to lanes 1–10. […] Bound complexes were separated from free probe by EMSA. The position of free probe, of the lower (NF-AT_p) complex and upper (NF-AT_p-Fos-Jun) complex are indicated.

Another data set concerns the target c-Fos + c-Jun (UniProt P12841;P17325 P12841:1-380,P17325:1-334). The data set can be described thus: EMSA; no NF-ATp present. The note with it: tags: full-length; label: 32P. As for the experimental part: as §3
For data set [4], the target named is T1, NF-ATp XS (464-aa recombinant fragment …). The data set can be described thus: EMSA; two complexes; self-competed by 200-fold excess; methylation interference shows GGAA core required. The following applies: label: 32P. As for the experimental part: as §1, §2
For data set [5], the target named is T2, NF-ATp (purified from Cl.7W2 T cells) (Mus musculus, UniProt Q60591 SEQ:1-890).
T2 chain: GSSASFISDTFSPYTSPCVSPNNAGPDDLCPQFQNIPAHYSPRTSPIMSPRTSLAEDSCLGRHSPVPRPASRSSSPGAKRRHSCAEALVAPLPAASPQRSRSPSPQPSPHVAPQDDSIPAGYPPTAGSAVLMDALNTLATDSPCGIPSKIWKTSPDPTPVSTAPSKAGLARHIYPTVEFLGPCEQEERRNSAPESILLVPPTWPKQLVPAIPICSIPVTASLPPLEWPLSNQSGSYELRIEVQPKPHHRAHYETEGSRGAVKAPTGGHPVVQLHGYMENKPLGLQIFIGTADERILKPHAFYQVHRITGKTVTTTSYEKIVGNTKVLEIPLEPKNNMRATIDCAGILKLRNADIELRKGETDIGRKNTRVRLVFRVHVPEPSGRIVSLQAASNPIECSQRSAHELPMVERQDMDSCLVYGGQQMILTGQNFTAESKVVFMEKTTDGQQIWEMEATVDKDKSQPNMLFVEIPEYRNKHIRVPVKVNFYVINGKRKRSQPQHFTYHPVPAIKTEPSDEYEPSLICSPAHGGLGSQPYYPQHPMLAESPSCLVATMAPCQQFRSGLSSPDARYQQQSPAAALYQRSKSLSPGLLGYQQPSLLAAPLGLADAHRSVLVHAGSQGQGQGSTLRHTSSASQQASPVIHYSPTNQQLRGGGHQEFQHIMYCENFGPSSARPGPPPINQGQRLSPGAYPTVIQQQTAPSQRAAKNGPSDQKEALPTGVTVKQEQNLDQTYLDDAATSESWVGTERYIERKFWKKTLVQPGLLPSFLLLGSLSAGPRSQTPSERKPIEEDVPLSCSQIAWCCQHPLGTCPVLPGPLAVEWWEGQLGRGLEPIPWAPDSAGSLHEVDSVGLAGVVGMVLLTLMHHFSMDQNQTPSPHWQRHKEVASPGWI
In words: EMSA; purified 120 kDa protein, renatured from gel. The following applies: tags: native; label: 32P. The method, then: EMSAs were performed using 18 μl of renatured proteins in a 30 μl mix containing 4 mM Hepes, pH 7.4, 84 mM NaCl, 20 mM KCl, 0.08 mM EDTA, 9% glycerol, 0.7 mg/ml BSA, 17 μg/ml poly(dI:dC) and 0.125 ng of ^32P-labelled oligonucleotide. For competition assays, a 200-fold excess of unlabeled oligonucleotide was added to the reaction. The reactions were incubated for 15 minutes at room temperature followed by electrophoresis at 4° C. on 4% Tris/borate/EDTA/acrylamide gels. The NF-AT oligonucleotide used had the sequence GCCCAAAGAG-GAAAATTTGTTTCATACAG (SEQ ID NO:1), corresponding to the distal NF-AT site from the murine IL-2 promoter (nucleotides −295 to −267 relative to the transcription start site, (Serfling, E., Barthelmas, R., Pfeuffer, I., Schenk, B., Zarius, S., Swoboda, R., Mercurio, F., and Karin, M. (1989) *EMBO J.* 8, 465–473)). Oligonucleotides bearing mutations in the NF-AT site were as follows: M1, […] (SEQ ID NO:2); M2, […] (SEQ ID NO:3); M3, […] […]
Figure 8: FIG. 8 is a photograph of an EMSA gel showing an analysis of NF-AT_p by renaturation of NF-AT_p activity following purification of the protein using SDS-polyacrylamide gel electrophoresis. […] After electrophoresis, the gel was sliced, proteins were eluted from gel slices and renatured, and the fractionated proteins were evaluated in an EMSA for their ability to bind to the NF-AT site of the murine IL-2 promoter.

In data set [6] the target is NF-ATp XS + c-Fos + c-Jun (UniProt Q60591;P12841;P17325 Q60591:400-863,P12841:1-380,P17325:1-334). The data set can be described thus: EMSA; Fos-Jun-NF-ATp complex; competed by AP-1 oligonucleotide; c-Fos alone does not associate. The note with it: tags: His6 on NF-ATp XS; full-length c-Fos and c-Jun; label: 32P. The method, then: as §3
Sequence of NF-ATp XS + c-Fos + c-Jun (P12841 whole entry, chain 2 of 2): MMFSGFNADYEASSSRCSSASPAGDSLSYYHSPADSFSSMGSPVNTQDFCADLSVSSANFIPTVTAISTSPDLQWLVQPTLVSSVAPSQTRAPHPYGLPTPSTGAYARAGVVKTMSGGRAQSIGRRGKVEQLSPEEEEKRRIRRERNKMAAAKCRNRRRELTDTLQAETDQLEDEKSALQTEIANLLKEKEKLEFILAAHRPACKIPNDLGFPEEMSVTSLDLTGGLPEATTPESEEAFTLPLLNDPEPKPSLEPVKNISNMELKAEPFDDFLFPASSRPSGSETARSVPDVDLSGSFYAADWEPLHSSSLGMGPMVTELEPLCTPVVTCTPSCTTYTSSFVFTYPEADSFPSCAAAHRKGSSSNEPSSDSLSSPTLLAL
Sequence of NF-ATp XS + c-Fos + c-Jun (P17325 whole entry, chain 3 of 2): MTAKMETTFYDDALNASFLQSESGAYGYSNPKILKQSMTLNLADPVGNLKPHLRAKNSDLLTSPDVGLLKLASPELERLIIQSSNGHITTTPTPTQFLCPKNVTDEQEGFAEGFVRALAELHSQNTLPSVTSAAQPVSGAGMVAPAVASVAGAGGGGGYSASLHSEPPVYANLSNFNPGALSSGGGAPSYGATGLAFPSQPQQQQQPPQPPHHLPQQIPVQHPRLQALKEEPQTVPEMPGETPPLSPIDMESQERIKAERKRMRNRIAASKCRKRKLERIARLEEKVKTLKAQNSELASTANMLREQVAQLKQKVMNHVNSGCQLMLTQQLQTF

Sequence of NF-ATp XS + c-Jun (P17325 whole entry, the tested form may be a part, one chain of several): as the sequence (P17325 whole entry, chain 3 of 2) above
Sequence of c-Fos + c-Jun (P12841 whole entry, chain 1 of 2, the tested form may be a part): as the sequence (P12841 whole entry, chain 2 of 2) above
Sequence of c-Fos + c-Jun (P17325 whole entry, chain 2 of 2, the tested form may be a part): as the sequence (P17325 whole entry, chain 3 of 2) above
Sequence of NF-ATp (T cell) + c-Fos + c-Jun (Q60591 whole entry, chain 1 of 3, the tested form may be a part): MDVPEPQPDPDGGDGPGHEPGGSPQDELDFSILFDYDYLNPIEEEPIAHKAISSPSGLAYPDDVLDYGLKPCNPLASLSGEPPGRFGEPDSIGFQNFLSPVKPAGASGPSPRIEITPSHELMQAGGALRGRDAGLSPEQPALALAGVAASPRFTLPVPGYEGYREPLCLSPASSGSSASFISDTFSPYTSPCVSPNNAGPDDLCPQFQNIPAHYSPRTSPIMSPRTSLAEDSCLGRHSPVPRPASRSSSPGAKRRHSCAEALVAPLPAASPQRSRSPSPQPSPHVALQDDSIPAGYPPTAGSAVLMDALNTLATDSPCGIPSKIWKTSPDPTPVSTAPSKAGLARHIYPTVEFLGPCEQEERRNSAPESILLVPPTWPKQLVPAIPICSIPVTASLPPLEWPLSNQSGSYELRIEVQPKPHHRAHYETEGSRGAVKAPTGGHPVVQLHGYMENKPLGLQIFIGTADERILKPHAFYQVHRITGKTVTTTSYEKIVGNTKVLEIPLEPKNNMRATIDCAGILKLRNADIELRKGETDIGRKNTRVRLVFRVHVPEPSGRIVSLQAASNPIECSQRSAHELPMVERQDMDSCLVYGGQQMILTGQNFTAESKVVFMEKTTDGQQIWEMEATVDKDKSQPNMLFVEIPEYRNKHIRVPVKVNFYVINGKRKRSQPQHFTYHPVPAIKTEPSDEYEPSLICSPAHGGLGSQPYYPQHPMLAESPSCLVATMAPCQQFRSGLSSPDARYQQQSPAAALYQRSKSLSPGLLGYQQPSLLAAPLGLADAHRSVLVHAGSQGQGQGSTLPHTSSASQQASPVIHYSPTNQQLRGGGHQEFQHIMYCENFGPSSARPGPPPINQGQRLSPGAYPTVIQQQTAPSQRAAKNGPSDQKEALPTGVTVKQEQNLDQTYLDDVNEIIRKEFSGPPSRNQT
Sequence of NF-ATp (T cell) + c-Fos + c-Jun (P12841 whole entry, chain 2 of 3, the tested form may be a part): as the sequence (P12841 whole entry, chain 2 of 2) above
Sequence of NF-ATp (T cell) + c-Fos + c-Jun (P17325 whole entry, chain 3 of 3, the tested form may be a part): as the sequence (P17325 whole entry, chain 3 of 2) above

B1: M3 (dsDNA)
DNA 1: GCCCAAAGACCTTAATTTGTTTCATACAG
DNA 2: CTGTATGAAACAAATTAAGGTCTTTGGGC
B1: the binding result in data set [1] was “no binding”.

B2: M1 (dsDNA)
DNA 1: GCCCAAAGAGGAAAATTTGTTTATATCAG
DNA 2: CTGATATAAACAAATTTTCCTCTTTGGGC
B2: the binding result in data set [2] is on record as “binds”.

B3: NF-AT oligonucleotide (distal NF-AT site, murine IL-2 promoter) (dsDNA)
DNA 1: GCCCAAAGAGGAAAATTTGTTTCATACAG
DNA 2: CTGTATGAAACAAATTTTCCTCTTTGGGC
Turning to B3, the binding result with NF-ATp XS + c-Jun is “binds”; in data set [3], “binds”; in the data set with c-Fos + c-Jun it was “no binding”; in data set [4], “binds”; in data set [5], “binds”; in data set [6], “binds”.
